Assay results: patent US11225653B2, “Methods and compounds for reducing threonyl-tRNA synthetase activity” (University of Vermont and State Agricultural College, priority 2012, dated 2022)
Where a chain is given by its changes, count along the chain named. Names and notes keep the numbering of the source. “Also recorded” adds a separate entry of the source.

B1: E. coli ThrRS: bacterial (E. coli) threonyl-tRNA synthetase (protein, UniProt P0A8M3 1-642, looked up)
Threonine--tRNA ligase: MPVITLPDGSQRHYDHAVSPMDVALDIGPGLAKACIAGRVNGELVDACDLIENDAQLSIITAKDEEGLEIIRHSCAHLLGHAIKQLWPHTKMAIGPVIDNGFYYDVDLDRTLTQEDVEALEKRMHELAEKNYDVIKKKVSWHEARETFANRGESYKVSILDENIAHDDKPGLYFHEEYVDMCRGPHVPNMRFCHHFKLMKTAGAYWRGDSNNKMLQRIYGTAWADKKALNAYLQRLEEAAKRDHRKIGKQLDLYHMQEEAPGMVFWHNDGWTIFRELEVFVRSKLKEYQYQEVKGPFMMDRVLWEKTGHWDNYKDAMFTTSSENREYCIKPMNCPGHVQIFNQGLKSYRDLPLRMAEFGSCHRNEPSGSLHGLMRVRGFTQDDAHIFCTEEQIRDEVNGCIRLVYDMYSTFGFEKIVVKLSTRPEKRIGSDEMWDRAEADLAVALEENNIPFEYQLGEGAFYGPKIEFTLYDCLDRAWQCGTVQLDFSLPSRLSASYVGEDNERKVPVMIHRAILGSMERFIGILTEEFAGFFPTWLAPVQVVIMNITDSQSEYVNELTQKLSNAGIRVKADLRNEKIGFKIREHTLRRVPYMLVCGDKEVESGKVAVRTRRGKDLGSMDVNEVIEKLQQEIRSRSLKQLEE
B2: L567V TARS: BC194-resistant (borrelidin-resistant) L567V mutant of human TARS (protein, UniProt P26639 1-723, looked up, variant L567V)
Threonine--tRNA ligase 1, …: MFEEKASSPSGKMGGEEKPIGAGEEKQKEGGKKKNKEGSGDGGRAELNPWPEYIYTRLEMYNILKAEHDSILAEKAEKDSKPIKVTLPDGKQVDAESWKTTPYQIACGISQGLADNTVIAKVNNVVWDLDRPLEEDCTLELLKFEDEEAQAVYWHSSAHIMGEAMERVYGGCLCYGPPIENGFYYDMYLEEGGVSSNDFSSLEALCKKIIKEKQAFERLEVKKETLLAMFKYNKFKCRILNEKVNTPTTTVYRCGPLIDLCRGPHVRHTGKIKALKIHKNSSTYWEGKADMETLQRIYGISFPDPKMLKEWEKFQEEAKNRDHRKIGRDQELYFFHELSPGSCFFLPKGAYIYNALIEFIRSEYRKRGFQEVVTPNIFNSRLWMTSGHWQHYSENMFSFEVEKELFALKPMNCPGHCLMFDHRPRSWRELPLRLADFGVLHRNELSGALTGLTRVRRFQQDDAHIFCAMEQIEDEIKGCLDFLRTVYSVFGFSFKLNLSTRPEKFLGDIEVWDQAEKQLENSLNEFGEKWELNSGDGAFYGPKIDIQIKDAIGRYHQCATIQLDFQVPIRFNLTYVSHDGDDKKRPVIVHRAILGSVERMIAILTENYGGKWPFWLSPRQVMVVPVGPTCDEYAQKVRQQFHDAKFMADIDLDPGCTLNKKIRNAQLAQYNFILVVGEKEKISGTVNIRTRDNKVHGERTISETIERLQQLKEFRSKQAEEEF
B3: R442A TARS: aminoacylation-deficient mutant of hTARS, active site Arg442 substituted with alanine (protein, UniProt P26639 1-723, looked up, variant R442A)
Threonine--tRNA ligase 1, …: B2 Threonine--tRNA ligase 1, … with R442A, V567L

Tests used:
[1] = test system: HUVECs; test: Quantitative RT-PCR of TARS mRNA; type: cell-based, human; details: HUVECs exposed to 50 ng/ml VEGF or TNF-α
Protocol: Quantitative RT-PCR—Total RNA was extracted from cells using the RNeasy column protocol and cDNA was generated using an Omniscript reverse transcriptase assay according to the manufacturer's instructions (Qiagen, Frederick, Md.). Primers and probes for TARS and β2-microglobulin were Assays-on-Demand (Applied Biosystems, [Life Technologies, Carlsbad, Calif.]). RT-qPCR was performed using an ABI prism 7700 Sequence Detection System (Applied Biosystems). The relative quantity of mRNA level was determined using the comparative CT (ΔΔCT) method using β2-microglobulin to normalize mRNA level (Cassavaugh, Hale et al. 2011).

[2] = test system: human TARS; test: Ap4G formation assay; type: biochemical; details: 2 mM ATP, 2 mM threonine, 2 mM GTP
[3] = test system: human TARS; test: Ap4A formation assay; type: biochemical; details: 5 μM enzyme, 2 mM threonine, 2 mM ATP
Protocol: TARS purification and active site determination were performed as previously described (Williams, Mirando et al., 2013). TARS non-canonical catalytic activities were characterized using modifications from published methods (Guo, Chong et al. 2009). For Ap4A reactions 5 μM of wildtype TARS or R442A TARS were incubated for 10 minutes on ice with 2 mM threonine, and 10 μM BC194 or borrelidin as indicated in FIG. 17C. Reactions were initiated using 2 mM ATP with trace amounts of [α-^32P]-ATP as label. At specific time points aliquots were quenched in 3 volumes of 0.1% SDS, 400 mM sodium acetate and resolved on polyethyleneimine-cellulose plates by thin-layer chromatography (TLC) in 3 M NH4 (SO4)2 and 2% EDTA. Radioactive counts were identified by phosphorimaging and products quantified as fractions of total ATP added. The quantitation of product was normalized to take into account the fact that each Ap4A molecule has two equivalents of radioactive phosphorus.

[4] = test system: human TARS; test: GTPase assay (GTP hydrolysis); type: biochemical; details: 2 mM GTP
[5] = test system: human TARS; test: Steady state aminoacylation assay; type: biochemical; details: purified protein
Protocol: Steady State Aminoacylation Assay-The aminoacylation activities of the TARS constructs were determined using modifications to established procedures ([…] et al 2008). Briefly, reaction mixtures consisted of 20 mM Tris-HCl pH 8.0, 100 mM KCl, 10 mM MgCl2, 1 mM dithiothreitol, 2 mM ATP, 2.5 U pyrophosphatase (Roche), 80 μM threonine, 20 μM [14C]-threonine, and 5 μM of E. coli or human […]. Reactions were initiated with the addition of 0.25-0.75 μM TARS and run at 37° C. Aliquots were taken at varying time points and spotted onto Whatmann 3MM paper filters pre-soaked in 5% trichloroacetic acid (TCA). Upon completion, the filters were washed 3 times in excess TCA, once in 95% ethanol, and dried under a heating lamp. The formation of […] was detected by scintillation counter and the activity determined by linear regression of […] formed per active site per unit time.

[6] = test system: chorioallantoic membrane (CAM); test: Chick chorioallantoic membrane (CAM) assay; type: in vivo, chicken; details: for vessel formation / vascularization on the CAM after applied protein: purified protein applied daily to sponge, scored over 72 h
Protocol: Chick Chorioallantoic Membrane Assay-Fertilized chicken eggs (Sunrise Farms, Catskill, N.Y.) day 1-2 post-laying were incubated in a humidified incubator at 37° C. for 72 h. Cleaned eggs were cracked and plated in a sterile 10 cm^2 tissue culture-treated dish and incubated at 37° C. for another 7 days. On developmental day 10, 1 mm^3 sterile gelatin sponge pieces (Surgifoam®; Johnson & Johnson Wound Management, Somerville, N.J.) were placed within the outer one-third of the membrane between large vessels. 40 μg/ml human bFGF and 2 μg/mL human VEGF were used as pro-angiogenic control compounds; 100 μg/mL retinoic acid (Sigma-Aldrich, St. Louis, Mo.) diluted in phosphate-buffered saline (PBS) was used as an angiostatic control. All compounds were applied in 10 μl to the CAM every 24 h for 72 h. Images were taken using a Leica MZ6 stereomicroscope every 24 h. Compounds were scored according to a modified version of Intensity Scoring as previously described (Ribatti, Nico et al. 2006). Briefly, each experimental condition was given a blinded score from 0-5 based on the change in the extent of vessel convergence and formation in proximity to the sponge from day 0 to day 3. Total score is averaged individual experimental condition scores from at least 15 replicates.
Fertilized chicken embryos were cultured ex-ova and, starting at developmental day 10, agents were applied daily to gelfoam sponges on the CAM. Images were recorded daily over 72 h and scored blindly according to a modified version Intensity Scoring as previously described (Ribatti, Nico et al. 2006). Additional details regarding methods are provided in the Methods and Materials section of Example 1.

GTP hydrolysis [4]	Molecule	TARS mRNA / transcription [1]	rate of Ap4G formation [2]	production of Ap4A [3]	aminoacylation activity of the protein [5]	sensitivity of protein-stimulated CAM vessel formation to BC194 ([6]; protein applied together with BC194)	vessel formation / vascularization on the CAM after applied protein [6]
	VEGF	neither VEGF nor TNF-α induced an increase; also recorded: do not induce TARS transcription					
	TNF-α	neither VEGF nor TNF-α induced an increase; also recorded: do not induce TARS transcription					
not	B1		0.5612 Ap4G/active site/min	0.5612 Ap4A/active site/min			
	B2				activity is not compromised	not inhibited by application of BC194	stimulated vessel formation
0.2137 GDP/active site/min	B3		not catalyzed; also recorded: blocked	no appreciable activity; also recorded: blocked	essentially no aminoacylation activity; also recorded: virtually negligible aminoacylation function		virtually indistinguishable from wild type
